Measurements taken from patent US20220332835A1 (SHANGHAITECH UNIVERSITY, published 2022).

What was measured:
[1] = target: T1, human CXCR2 (hCXCR2) on cells (human, UniProt P25025 1-360); test: cell-based or functional assay
T1 sequence (looked up): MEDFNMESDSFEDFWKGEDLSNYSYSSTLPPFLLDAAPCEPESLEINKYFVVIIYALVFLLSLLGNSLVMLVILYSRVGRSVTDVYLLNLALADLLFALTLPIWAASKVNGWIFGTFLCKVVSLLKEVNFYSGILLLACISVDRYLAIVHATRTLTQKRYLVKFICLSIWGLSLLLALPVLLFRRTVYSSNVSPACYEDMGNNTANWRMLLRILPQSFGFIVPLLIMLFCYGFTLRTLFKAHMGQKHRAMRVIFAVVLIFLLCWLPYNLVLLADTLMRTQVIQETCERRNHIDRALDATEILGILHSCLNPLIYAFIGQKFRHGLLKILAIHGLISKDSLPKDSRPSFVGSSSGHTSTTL

[2] = target: T2, pepN48 (peptide of the 48 N-terminal extracellular amino acids of human CXCR2) (human, biotin labeled on its N-terminus (panning, ELISA, SPR)); test: SPR, Biacore T200; biotinylated pepN48 on SA chip;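 further: antibodies flowed in HBS-EP+ running buffer over the immobilized antigen at 0.5 to 10 nM, kinetic traces fitted to a protein-protein interaction model to derive constants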
T2 construct: Synthetic; also called N-terminus of CXCR2
T2 peptide: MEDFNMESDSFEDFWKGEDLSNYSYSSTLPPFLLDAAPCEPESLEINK

[3] = target: T3, rbCXCR2-mCherry (rabbit, UniProt P35344 1-358); test: FACS on transfected U2OS cells
T3 construct: whole, on cells; Overexpressed in U2OS cells; also called rabbitCXCR2; CXCR2 of rabbit; not shown: mCherry fluorescent tag
T3 sequence (looked up): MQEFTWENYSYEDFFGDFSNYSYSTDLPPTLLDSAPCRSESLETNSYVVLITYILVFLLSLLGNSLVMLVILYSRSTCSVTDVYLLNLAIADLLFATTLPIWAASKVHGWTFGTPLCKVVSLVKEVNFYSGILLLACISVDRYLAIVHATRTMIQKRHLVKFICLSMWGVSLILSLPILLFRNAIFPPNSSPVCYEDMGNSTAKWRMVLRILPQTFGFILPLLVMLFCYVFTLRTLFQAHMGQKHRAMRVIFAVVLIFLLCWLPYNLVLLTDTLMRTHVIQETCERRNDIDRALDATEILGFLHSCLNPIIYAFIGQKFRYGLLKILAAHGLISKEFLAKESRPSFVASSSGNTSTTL

[4] = target: T4, rCXCR2-mCherry (rat, UniProt P35407 1-359); test: FACS on transfected U2OS cells
T4 construct: whole, on cells; Overexpressed in U2OS cells; also called CXCR2 of rat; not shown: mCherry fluorescent tag
T4 sequence (looked up): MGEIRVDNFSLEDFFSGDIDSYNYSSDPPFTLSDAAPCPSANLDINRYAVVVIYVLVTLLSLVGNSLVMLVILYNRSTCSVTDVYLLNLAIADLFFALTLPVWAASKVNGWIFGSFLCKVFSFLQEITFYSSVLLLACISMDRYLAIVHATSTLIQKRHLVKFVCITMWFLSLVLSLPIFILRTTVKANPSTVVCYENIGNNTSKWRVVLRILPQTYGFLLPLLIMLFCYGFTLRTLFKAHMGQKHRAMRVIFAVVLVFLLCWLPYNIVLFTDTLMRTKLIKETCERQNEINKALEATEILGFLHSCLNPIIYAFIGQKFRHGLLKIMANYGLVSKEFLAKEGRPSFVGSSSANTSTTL

[5] = target: T5, hCXCR1-mCherry (human, UniProt P25024 1-350); test: FACS on transfected U2OS cells (also immunofluorescence)
T5 construct: whole, on cells; Overexpressed in U2OS cells; not shown: mCherry fluorescent tag
T5 sequence (looked up): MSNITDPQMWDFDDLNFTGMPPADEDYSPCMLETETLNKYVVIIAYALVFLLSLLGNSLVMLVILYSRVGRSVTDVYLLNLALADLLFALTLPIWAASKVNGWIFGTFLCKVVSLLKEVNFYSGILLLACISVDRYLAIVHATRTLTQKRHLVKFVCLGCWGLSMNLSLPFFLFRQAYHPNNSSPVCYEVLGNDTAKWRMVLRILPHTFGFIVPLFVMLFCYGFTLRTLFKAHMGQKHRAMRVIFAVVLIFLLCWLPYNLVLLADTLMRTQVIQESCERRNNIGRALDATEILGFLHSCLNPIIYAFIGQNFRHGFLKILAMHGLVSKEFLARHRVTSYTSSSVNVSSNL

[6] = target: T6, mCXCR2-mCherry (mouse, UniProt P35343 1-359); test: as above
T6 construct: whole, on cells; Overexpressed in U2OS cells; also called CXCR2 of mouse; not shown: mCherry fluorescent tag
T6 sequence (looked up): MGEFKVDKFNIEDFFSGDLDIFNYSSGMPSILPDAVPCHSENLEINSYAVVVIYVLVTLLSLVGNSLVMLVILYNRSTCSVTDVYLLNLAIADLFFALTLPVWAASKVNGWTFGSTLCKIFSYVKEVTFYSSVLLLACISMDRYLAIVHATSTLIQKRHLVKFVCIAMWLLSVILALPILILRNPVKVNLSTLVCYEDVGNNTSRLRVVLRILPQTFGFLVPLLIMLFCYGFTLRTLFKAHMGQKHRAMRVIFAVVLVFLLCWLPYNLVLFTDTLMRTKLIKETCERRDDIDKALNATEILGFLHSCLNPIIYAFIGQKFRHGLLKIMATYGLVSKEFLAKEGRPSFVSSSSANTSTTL

[7] = target: T7, pepN48Δ9-19 (human); test: binding to truncated synthetic peptides (FIG. 9); method not named
T7 construct: pepN48 with residues 9-19 deleted; also called pepN48 lacking 9-19 aa
T7 peptide: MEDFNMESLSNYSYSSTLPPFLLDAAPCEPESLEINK

[8] = target: T8, pepN9-19 (human); test: as above
T8 construct: Synthetic peptide, residues 9-19 of human CXCR2 (DSFEDFWKGED); also called NT9-19; pep9-19
T8 peptide: DSFEDFWKGED

## GROα (CXCL1) (from UniProt P09341 35-107) (ligand)
[1]
  β-arrestin recruitment, Tango assay, apparent EC50: 5.3 nM

## IL8 (from UniProt P10145 28-99) (ligand)
[1]
  β-arrestin recruitment, Tango assay, apparent EC50: 4.5 nM

B1: abN48-IgG1 (antibody, V domains shown)
VH: QVQLVQSGAEVKKPGSSVKVSCKASGGTLSSYAISWVRQAPGQGPEWMGWINPNSGGTNYAQKFQGRVTMTRDTSISTAYMELSRLRPDDTAVYYCASGYCSSTSCYDYWGQGTLVTVSS
VL: QAVLTQPSSLSASPGASVSLTCTLRSGINVGAYRIYWYQQKPGSPPQFLLRYKSDSDKQQGSGVPSRFSGSRDASANAGILLISGLRSEDEADYYCAIWHSSAWVFGGGTQLTVLG
notes: also called full-length abN48
[2]
  Kd: 0.78 nM
  koff: 0.00035 s⁻¹
  kon: 350000 M⁻¹ s⁻¹
[3]
  binding result: no binding (tested: 2 µg/mL)
[4]
  binding result: no binding (tested: 2 µg/mL)
[5]
  binding result: no binding (tested: 2 µg/mL)
[6]
  binding result: no binding (tested: 2 µg/mL)
[1]
  inhibition of GROα-induced (EC80) β-arrestin recruitment, Tango assay, apparent IC50: 4.7 nM
  inhibition of GROα-induced (EC90) Ca2+ influx, FLIPR, IC50: 1000 nM
  inhibition of IL8-induced (EC80) β-arrestin recruitment, Tango assay, apparent IC50: 2.8 nM
  inhibition of IL8-induced (EC90) Ca2+ influx, FLIPR, IC50: 190 nM

B2: abN48-1 (antibody, V domains shown)
VH: QVQLVQSGAEVKKPGSSVKVSCKASGGTLSSYAISWVRQAPGQGPEWMGWINPNSGGTNYAQKFQGRVTMTRDTSISTAYMELSRLRPDDTAVYYCASGFCTRTICFVYWGQGTLVTVSS
VL: QAVLTQPSSLSASPGASVSLTCTLRSGINVGAYRIYWYQQKPGSPPQFLLRYKSDSDKQQGSGVPSRFSGSRDASANAGILLISGLRSEDEADYYCAIWHSSAWVFGGGTQLTVLG
notes: Format as tested not clearly stated (sub-cloned to pFuse vector, expressed in HEK293T)
[2]
  Kd: 0.26 nM
  koff: 6.4e-05 s⁻¹
  kon: 250000 M⁻¹ s⁻¹

B3: abN48-3 (antibody, V domains shown)
VH: QVQLVQSGAEVKKPGSSVKVSCKASGGTLSSYAISWVRQAPGQGPEWMGWINPNSGGTNYAQKFQGRVTMTRDTSISTAYMELSRLRPDDTAVYYCASGYCSFAICFDSWGQGTLVTVSS
VL: QAVLTQPSSLSASPGASVSLTCTLRSGINVGAYRIYWYQQKPGSPPQFLLRYKSDSDKQQGSGVPSRFSGSRDASANAGILLISGLRSEDEADYYCAIWHSSAWVFGGGTQLTVLG
notes: format as tested not clearly stated
[2]
  Kd: 0.63 nM
  koff: 0.00016 s⁻¹
  kon: 360000 M⁻¹ s⁻¹

B4: abN48-4 (antibody, V domains shown)
VH: QVQLVQSGAEVKKPGSSVKVSCKASGGTLSSYAISWVRQAPGQGPEWMGWINPNSGGTNYAQKFQGRVTMTRDTSISTAYMELSRLRPDDTAVYYCASGYCNRTRCYDHWGQGTLVTVSS
VL: QAVLTQPSSLSASPGASVSLTCTLRSGINVGAYRIYWYQQKPGSPPQFLLRYKSDSDKQQGSGVPSRFSGSRDASANAGILLISGLRSEDEADYYCAIWHSSAWVFGGGTQLTVLG
notes: as for B3
[2]
  Kd: 0.031 nM
  koff: 1.6e-05 s⁻¹
  kon: 520000 M⁻¹ s⁻¹

B5: abN48-5 (antibody, V domains shown)
VH: QVQLVQSGAEVKKPGSSVKVSCKASGGTLSSYAISWVRQAPGQGPEWMGWINPNSGGTNYAQKFQGRVTMTRDTSISTAYMELSRLRPDDTAVYYCASGYCSRFNCKDYWGQGTLVTVSS
VL: QAVLTQPSSLSASPGASVSLTCTLRSGINVGAYRIYWYQQKPGSPPQFLLRYKSDSDKQQGSGVPSRFSGSRDASANAGILLISGLRSEDEADYYCAIWHSSAWVFGGGTQLTVLG
notes: as for B3
[2]
  Kd: ≤ 0.0012 nM
  koff: ≤ 1e-06 s⁻¹
  kon: 810000 M⁻¹ s⁻¹

B6: abN48-6 (antibody, V domains shown)
VH: QVQLVQSGAEVKKPGSSVKVSCKASGGTLSSYAISWVRQAPGQGPEWMGWINPNSGGTNYAQKFQGRVTMTRDTSISTAYMELSRLRPDDTAVYYCASGYCSPSGCYVYWGQGTLVTVSS
VL: QAVLTQPSSLSASPGASVSLTCTLRSGINVGAYRIYWYQQKPGSPPQFLLRYKSDSDKQQGSGVPSRFSGSRDASANAGILLISGLRSEDEADYYCAIWHSSAWVFGGGTQLTVLG
notes: as for B3
[2]
  Kd: 0.21 nM
  koff: 1.8e-05 s⁻¹
  kon: 85000 M⁻¹ s⁻¹

B7: abN48-7 (antibody, V domains shown)
VH: QVQLVQSGAEVKKPGSSVKVSCKASGGTLSSYAISWVRQAPGQGPEWMGWINPNSGGTNYAQKFQGRVTMTRDTSISTAYMELSRLRPDDTAVYYCASGYCGRARCTSFWGQGTLVTVSS
VL: QAVLTQPSSLSASPGASVSLTCTLRSGINVGAYRIYWYQQKPGSPPQFLLRYKSDSDKQQGSGVPSRFSGSRDASANAGILLISGLRSEDEADYYCAIWHSSAWVFGGGTQLTVLG
notes: as for B3
[2]
  Kd: 0.012 nM
  koff: 0.00015 s⁻¹
  kon: 1.3e+07 M⁻¹ s⁻¹

B8: abN48-8 (antibody, V domains shown)
VH: QVQLVQSGAEVKKPGSSVKVSCKASGGTLSSYAISWVRQAPGQGPEWMGWINPNSGGTNYAQKFQGRVTMTRDTSISTAYMELSRLRPDDTAVYYCASGYCSRSRCYDYWGQGTLVTVSS
VL: QAVLTQPSSLSASPGASVSLTCTLRSGINVGAYRIYWYQQKPGSPPQFLLRYKSDSDKQQGSGVPSRFSGSRDASANAGILLISGLRSEDEADYYCAIWHSSAWVFGGGTQLTVLG
notes: as for B3
[2]
  Kd: 0.016 nM
  koff: 2e-05 s⁻¹
  kon: 1.2e+06 M⁻¹ s⁻¹

B9: abN48 Fab (Fab, V domains shown)
VH: QVQLVQSGAEVKKPGSSVKVSCKASGGTLSSYAISWVRQAPGQGPEWMGWINPNSGGTNYAQKFQGRVTMTRDTSISTAYMELSRLRPDDTAVYYCASGYCSSTSCYDYWGQGTLVTVSS
VL: QAVLTQPSSLSASPGASVSLTCTLRSGINVGAYRIYWYQQKPGSPPQFLLRYKSDSDKQQGSGVPSRFSGSRDASANAGILLISGLRSEDEADYYCAIWHSSAWVFGGGTQLTVLG
notes: also called abN48 (Fab form); Fab form of abN48-IgG1
[7]
  binding result: no binding
[8]
  binding result: binds

B10: abN48-2 Fab (Fab, V domains shown)
VH: QVQLVQSGAEVKKPGSSVKVSCKASGGTLSSYAISWVRQAPGQGPEWMGWINPNSGGTNYAQKFQGRVTMTRDTSISTAYMELSRLRPDDTAVYYCASGYCSRTRCYDYWGQGTLVTVSS
VL: QAVLTQPSSLSASPGASVSLTCTLRSGINVGAYRIYWYQQKPGSPPQFLLRYKSDSDKQQGSGVPSRFSGSRDASANAGILLISGLRSEDEADYYCAIWHSSAWVFGGGTQLTVLG
notes: Made as abN48 Fab ('following a similar protocol'); also called abN48-2 (Fab form); Fab form of abN48-2-IgG2 (so in the source)
[7]
  binding result: no binding
[8]
  binding result: binds
